According to EP4713370A2 (dated 2026):

B1: ch3-7 (antibody, human IgG1, kappa, V domains shown)
VH: QSLEESGGRLVTPGTPLTLTCTVSGFSPSSYYMSWVRQAPGKGLEYIGIIFSGGSTWYASWAKGRVTISRTSTTVDLKMTSLTTEDTATYFCARGDAVGSGYWGLWGPGTLVTVSS
VL: AFELTQTPSSVEAAVGGTVTINCQASQDIYIYLAWYQQKPGQPPKLLIYSASTLASGVSSRFTGSRSGTQFTLTISDLEPADAATYYCQSYDGTSNTGFGGGTEVVVRR
notes: Chimeric rabbit/human IgG1; also called chimeric anti-NKp46 antibody ch3-7
B2: ch5-13 (antibody, human IgG1, kappa, V domains shown)
VH: QSVEESGGRLVTPGTPLTLTCTVSGFSLSSYHMSWVRQAPGKGLEWIGYILANTDSYYANWAKGRFTISKTSTTVDLKITSPTTEDTATYFCARYDNHDAAYSTLWGPGTLVTVSS
VL: AYDMTQTPASVEVAVGGTVTIKCQASQSISTALAWYQQKPGQPPKLLIYKASTLASGVSSRFKGSGSGTQFTLTISGVEPADAATYYCQQGYSRSNVDNVFGGGTEVVVKR
notes: Chimeric rabbit/human IgG1; also called chimeric anti-NKp46 antibody ch5-13
B3: rabbit anti-NKp46 clone 3-7 (expressed and purified as rabbit IgG) (antibody, V domains shown)
VH: QSLEESGGRLVTPGTPLTLTCTVSGFSPSSYYMSWVRQAPGKGLEYIGIIFSGGSTWYASWAKGRVTISRTSTTVDLKMTSLTTEDTATYFCARGDAVGSGYWGLWGPGTLVTVSS
VL: AFELTQTPSSVEAAVGGTVTINCQASQDIYIYLAWYQQKPGQPPKLLIYSASTLASGVSSRFTGSRSGTQFTLTISDLEPADAATYYCQSYDGTSNTGFGGGTEVVVR
notes: Rabbit IgG
B4: rabbit anti-NKp46 clone 5-13 (expressed and purified as rabbit IgG) (antibody, V domains shown)
VH: QSVEESGGRLVTPGTPLTLTCTVSGFSLSSYHMSWVRQAPGKGLEWIGYILANTDSYYANWAKGRFTISKTSTTVDLKITSPTTEDTATYFCARYDNHDAAYSTLWGPGTLVTVSS
VL: AYDMTQTPASVEVAVGGTVTIKCQASQSISTALAWYQQKPGQPPKLLIYKASTLASGVSSRFKGSGSGTQFTLTISGVEPADAATYYCQQGYSRSNVDNVFGGGTEVVVK
notes: Rabbit IgG

Experiments:
[1] = target: T1, Recombinant human NKp46, His Tag (human NKp46 ECD antigen, aa. 22-254, his-tagged) (human, UniProt O76036 22-255); assay: ELISA on coated NKp46-His, and BLI with antibody on anti-human IgG Fc probe and 11 nM NKp46-His
T1 construct: also called NKp46 extracellular domain (ECD); Acrobiosystems #NC1-H52H4; not shown: His tag

[2] = target: T2, human NKp46 expressed on cells (primary human NK cells; CHOK1-hNKp46 cells) (human, UniProt O76036 22-304); assay: flow cytometry on primary human NK cells, rabbit IgG, anti-rabbit IgG FITC
T2 construct: whole, on cells; also called cell surface expressed NKp46; NCR1
T2 sequence (O76036 22-304): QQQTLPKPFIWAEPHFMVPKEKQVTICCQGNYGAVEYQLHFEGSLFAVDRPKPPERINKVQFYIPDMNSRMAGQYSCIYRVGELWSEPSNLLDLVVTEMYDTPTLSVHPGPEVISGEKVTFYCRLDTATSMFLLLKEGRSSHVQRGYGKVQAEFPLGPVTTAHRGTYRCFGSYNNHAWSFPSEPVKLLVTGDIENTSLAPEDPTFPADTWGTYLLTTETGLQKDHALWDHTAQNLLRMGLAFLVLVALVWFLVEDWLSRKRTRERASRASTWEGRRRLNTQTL

T1 sequence (O76036 other isoform, or with tags, fused parts or gaps): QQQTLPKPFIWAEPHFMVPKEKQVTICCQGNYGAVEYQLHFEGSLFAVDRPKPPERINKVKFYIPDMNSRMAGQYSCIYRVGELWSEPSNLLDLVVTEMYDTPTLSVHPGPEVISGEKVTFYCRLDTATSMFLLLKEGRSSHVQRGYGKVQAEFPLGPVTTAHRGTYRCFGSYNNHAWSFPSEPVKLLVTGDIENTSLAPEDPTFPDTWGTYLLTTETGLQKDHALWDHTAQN

Row | binding result [1] | binding result [2] | Binder
1 | binds | – | B1
2 | binds | – | B2
3 | – | binds | B3
4 | – | binds | B4
